Measurements as given in US20250163127A1.

target: CTLA-4 (human); experiment: flow cytometry, CHO cells expressing CTLA4
Target sequence in this assay (chain, as listed by the source): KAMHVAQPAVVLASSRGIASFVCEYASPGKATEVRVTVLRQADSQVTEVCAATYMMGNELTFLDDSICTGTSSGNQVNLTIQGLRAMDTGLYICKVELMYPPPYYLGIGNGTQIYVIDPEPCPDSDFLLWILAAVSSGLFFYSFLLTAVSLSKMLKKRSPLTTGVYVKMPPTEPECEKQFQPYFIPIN

Sequence of WT CD80 ECD-Fc (R&D) (Fc fusion) (chain): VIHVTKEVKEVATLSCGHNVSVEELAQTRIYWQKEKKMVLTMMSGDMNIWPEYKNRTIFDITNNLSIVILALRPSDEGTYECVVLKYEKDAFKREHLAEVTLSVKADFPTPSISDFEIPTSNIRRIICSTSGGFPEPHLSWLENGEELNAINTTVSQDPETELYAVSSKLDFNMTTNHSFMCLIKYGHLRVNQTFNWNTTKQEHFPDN

Substance	MFI at 33.3 nM [MFI]	Fold change to WT CD80 [fold]
variant CD80 A26E/E35D/M47L/A71G (Fc fusion)	341000	
variant CD80 E35D/A71G (Fc fusion)	184000	
variant CD80 E35D/D46E/M47V/A71D/D90G (Fc fusion)	275000	
variant CD80 E35D/M38T/M43V/M47V/N48R/L85Q (Fc fusion)	204000	
variant CD80 E35D/M42V/M47V/E52D/L85Q (Fc fusion)	226000	1.44
variant CD80 E35D/M43I/M47V/K89N (Fc fusion)	278000	
variant CD80 E35D/M47V/A71G/E88D (Fc fusion)	212000	
variant CD80 E35D/M47V/T62A/A71D/K93E (Fc fusion)	226000	
variant CD80 E35D/T41S/M43I/A71G/D90G (Fc fusion)	208000	
variant CD80 E35D/T41S/M43I/M47L/A71G (Fc fusion)	209000	
variant CD80 H18Y/A26E/E35D/M47L/L85Q/D90G (Fc fusion)	231000	1.47
variant CD80 H18Y/E35D/N48K (Fc fusion)	261000	
variant CD80 I30V/E35D/M47V/A71G/A91V (Fc fusion)	205000	
variant CD80 Q33R/E35D/M47V/N48K/L85M/F92L (Fc fusion)	2680	
variant CD80 V22D/E35D/M47L/L85Q (Fc fusion)	256000	
variant CD80 V22L/Q27H/E35D/M47I/A71G (Fc fusion)	152000	0.96

target: PD-L1 (human); experiment: flow cytometry, CHO cells expressing PD-L1
Target sequence in this assay (chain, as listed by the source): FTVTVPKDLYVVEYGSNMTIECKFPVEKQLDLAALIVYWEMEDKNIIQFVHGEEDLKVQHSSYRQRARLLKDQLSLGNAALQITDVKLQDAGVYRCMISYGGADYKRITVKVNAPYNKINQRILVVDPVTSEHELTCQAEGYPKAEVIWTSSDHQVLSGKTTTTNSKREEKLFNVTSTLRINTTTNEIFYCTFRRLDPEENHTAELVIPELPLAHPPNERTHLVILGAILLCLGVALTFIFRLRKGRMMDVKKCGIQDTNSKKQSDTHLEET

Substance	MFI at 33.3 nM [MFI]	Fold change to WT CD80 [fold]
WT CD80 ECD-Fc (R&D) (Fc fusion)	11900	
variant CD80 A26E/E35D/M47L/A71G (Fc fusion)	53400	4.49
variant CD80 E35D/A71G (Fc fusion)	34100	
variant CD80 E35D/D46E/M47V/A71D/D90G (Fc fusion)	32400	
variant CD80 E35D/M38T/M43V/M47V/N48R/L85Q (Fc fusion)	21800	
variant CD80 E35D/M42V/M47V/E52D/L85Q (Fc fusion)	11900	
variant CD80 E35D/M43I/M47V/K89N (Fc fusion)	19200	
variant CD80 E35D/M47I/Y87Q/K89E (Fc fusion)	29800	
variant CD80 E35D/M47V/A71G (Fc fusion)	36200	
variant CD80 E35D/M47V/A71G/E88D (Fc fusion)	37100	3.13
variant CD80 E35D/M47V/N48T/L85Q (Fc fusion)	35500	
variant CD80 E35D/M47V/T62A/A71D/K93E (Fc fusion)	693	
variant CD80 E35D/T41S/M43I/M47V/A71G (Fc fusion)	44400	
variant CD80 H18Y/A26E/E35D/M47L/L85Q/D90G (Fc fusion)	52400	
variant CD80 I30V/E35D/M47V/A71G/A91V (Fc fusion)	43900	
variant CD80 Q33R/E35D/M47V/N48K/L85M/F92L (Fc fusion)	21400	
variant CD80 V22L/Q27H/E35D/M47I/A71G (Fc fusion)	43800	

target: CTLA-4 (human); experiment: flow cytometry, cells expressing CTLA-4

Substance	MFI [MFI]	parental ratio
variant CD80 A91G (Fc fusion)	200	
variant CD80 E24G/L25P/L70Q/A91G/I118V/T120S/N152T (Fc fusion)	38	
variant CD80 I67T/L70Q/A91G/I118V/T120S (Fc fusion)	160	0.77
variant CD80 K89E/T130A (Fc fusion)	148	
variant CD80 L65H/D90G/T110A/F116L (Fc fusion)	121	
variant CD80 R29H/E52G/D90N/I118V/T120S/T130A (Fc fusion)	141	
variant CD80 R29H/E52G/L70R/E88G/A91G/T130A (Fc fusion)	119	0.57
variant CD80 T28S/L70Q/A91G/E95K/I118V/T120S/I126V/T130A/K169E (Fc fusion)	65	0.31
variant CD80 V20L/L70Q/A91S/I118V/T120S/T130A (Fc fusion)	200	0.96

target: CD28 (human) (UniProt P10747); experiment: flow cytometry, Jurkat cells (CD28)

Substance	MFI at 33.3 nM [MFI]	Fold change to WT CD80 [fold]
WT CD80 ECD-Fc (R&D) (Fc fusion)	18000	
variant CD80 A26E/E35D/M47L/A71G (Fc fusion)	2160	0.12
variant CD80 E35D/M42V/M47V/E52D/L85Q (Fc fusion)	1290	0.07
variant CD80 E35D/M47I/Y87Q/K89E (Fc fusion)	15500	
variant CD80 E35D/M47V/A71G (Fc fusion)	6360	
variant CD80 E35D/M47V/A71G/E88D (Fc fusion)	6240	0.35
variant CD80 E35D/M47V/N48T/L85Q (Fc fusion)	692	
variant CD80 E35D/T41S/M43I/M47L/A71G (Fc fusion)	3100	
variant CD80 E35D/T41S/M43I/M47V/A71G (Fc fusion)	2840	
variant CD80 H18Y/A26E/E35D/M47L/L85Q/D90G (Fc fusion)	3540	0.2
variant CD80 Q27H/E35D/D46V/M47L/A71G (Fc fusion)	10400	
variant CD80 V22D/E35D/M47L/L70M/L97Q (Fc fusion)	527	
variant CD80 V22D/E35D/M47L/L85Q (Fc fusion)	542	
variant CD80 V22L/Q27H/E35D/M47I/A71G (Fc fusion)	7270	0.4

target: CD28 (human) (UniProt P10747); experiment: flow cytometry, cells expressing CD28

Substance	MFI [MFI]	parental ratio
variant CD80 A91G/S103P (Fc fusion)	39	
variant CD80 E24G/L25P/L70Q/A91G/I118V/T120S/N152T (Fc fusion)	26	
variant CD80 I67T/L70Q/A91G/I118V/T120S (Fc fusion)	98	1.03
variant CD80 K36E/I67T/L70Q/A91G/I118V/T120S/T130A/N152T (Fc fusion)	8	
variant CD80 L65H/D90G/T110A/F116L (Fc fusion)	33	
variant CD80 M38T/L70Q/E77G/A91G/I118V/T120S/T130A/N152T (Fc fusion)	61	
variant CD80 M38V/T41D/M43I/W50G/D76G/V83A/K89E/I118V/T120S/I126V/T130A (Fc fusion)	5	
variant CD80 R29H/E52G/D90N/I118V/T120S/T130A (Fc fusion)	66	
variant CD80 R29H/E52G/L70R/E88G/A91G/T130A (Fc fusion)	100	
variant CD80 T28S/L70Q/A91G/E95K/I118V/T120S/I126V/T130A/K169E (Fc fusion)	32	0.34
variant CD80 V20L/L70Q/A91S/I118V/T120S/T130A (Fc fusion)	105	

target: PD-L1 (human); experiment: flow cytometry, CHO cells stably expressing PD-L1

Substance	MFI at 33.3 nM [MFI]
WT CD80 ECD-Fc (R&D) (Fc fusion)	7940

target: CD28 (human) (UniProt P10747); experiment: flow cytometry, Jurkat cells (CD28); remark: another data set of the same source

Substance	MFI at 33.3 nM [MFI]
WT CD80 ECD-Fc (R&D) (Fc fusion)	7630

target: PD-L1 (human); experiment: flow cytometry, cells expressing PD-L1

Substance	MFI [MFI]	parental ratio
variant CD80 A91G (Fc fusion)	85	
variant CD80 A91G/S103P (Fc fusion)	9	
variant CD80 I67T/L70Q/A91G/I118V/T120S (Fc fusion)	5	0.08
variant CD80 R29H/E52G/L70R/E88G/A91G/T130A (Fc fusion)	5	0.08
variant CD80 T28S/L70Q/A91G/E95K/I118V/T120S/I126V/T130A/K169E (Fc fusion)	6	0.08
variant CD80 V20L/L70Q/A91S/I118V/T120S/T130A (Fc fusion)	9	0.13
